First the molecules themselves.
B1: KCNG1 (parent)
chain: AVNLSVSTLPSLREEEEQVRAHAP
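Also: lentivirally expressed fusions sorted by FACS into six bins by GFP to DsRed ratio, PSI derived from sequencing read proportions per bin multiplied by bin number.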

This data set covers variants of B1. As to the kind of experiment: protein stability index of a GFP-peptide fusion (GPS, HEK-293T) (PSI 1-6); higher = more stable. As to conditions: c terminus: a fixed tail appended.
Take AVNLSVSTLPSLRECEEQVRAHAP [E15C]: the protein stability index was found to be 4.23.

On to AVNLSVSTLPSLREAEEQVRAHAP [E15A], for which the protein stability index was 4.2.

Consider AVNLSVSTLPSLREDEEQVRAHAP [E15D], for which the protein stability index came to 5.05.

As for AVNLSVSELPSLREEEEQVRAHAP [T8E], the protein stability index is 4.95.

For AVNLSVSPLPSLREEEEQVRAHAP [T8P], the protein stability index worked out at 5.14.

Turning to AVNLSVSHLPSLREEEEQVRAHAP [T8H], the protein stability index stood at 4.83.

Regarding AVNLSVSSLPSLREEEEQVRAHAP [T8S], the protein stability index was found to be 4.82.

As to AVNLSVSWLPSLREEEEQVRAHAP [T8W], the protein stability index stood at 3.11.

Turning to AVNLSVSGLPSLREEEEQVRAHAP [T8G], the protein stability index was determined as 5.15.

Regarding AVNLSVSQLPSLREEEEQVRAHAP [T8Q], the protein stability index amounted to 5.07.

As to AVNLSVSILPSLREEEEQVRAHAP [T8I], the protein stability index stood at 4.12.

Take AVNLSVSVLPSLREEEEQVRAHAP [T8V]: the protein stability index was determined as 4.45.

For the variant AVNLSVSFLPSLREEEEQVRAHAP [T8F], the protein stability index amounted to 3.42.

Regarding AVNLSVSLLPSLREEEEQVRAHAP [T8L], the protein stability index amounted to 4.55.

Regarding AVNLSVSRLPSLREEEEQVRAHAP [T8R], the protein stability index is 4.94.

Regarding AVNLSVSKLPSLREEEEQVRAHAP [T8K], the protein stability index was 4.61.

For AVNLSVSYLPSLREEEEQVRAHAP [T8Y], the protein stability index amounted to 4.19.

For AVNLSVSALPSLREEEEQVRAHAP [T8A], the protein stability index was found to be 5.28.

In the case of AVNLSVSCLPSLREEEEQVRAHAP [T8C], the protein stability index was determined as 4.67.

On to AVNLSVSDLPSLREEEEQVRAHAP [T8D], for which the protein stability index amounted to 5.36.

Consider AVNLSVSMLPSLREEEEQVRAHAP [T8M], for which the protein stability index came to 4.53.

AVNLSVSNLPSLREEEEQVRAHAP [T8N]: the protein stability index stood at 5.14.

For AVNLSPSTLPSLREEEEQVRAHAP [V6P], the protein stability index was determined as 5.45.

In the case of AVNLSMSTLPSLREEEEQVRAHAP [V6M], the protein stability index stood at 4.98.

As to AVNLSRSTLPSLREEEEQVRAHAP [V6R], the protein stability index came to 5.02.

With AVNLSWSTLPSLREEEEQVRAHAP [V6W], the protein stability index amounted to 4.53.

As to AVNLSISTLPSLREEEEQVRAHAP [V6I], the protein stability index is 5.08.

Consider AVNLSFSTLPSLREEEEQVRAHAP [V6F], for which the protein stability index was determined as 4.59.

Take AVNLSKSTLPSLREEEEQVRAHAP [V6K]: the protein stability index was determined as 5.01.

With AVNLSCSTLPSLREEEEQVRAHAP [V6C], the protein stability index turned out to be 4.75.

For AVNLSLSTLPSLREEEEQVRAHAP [V6L], the protein stability index was 4.69.

Consider AVNLSTSTLPSLREEEEQVRAHAP [V6T], for which the protein stability index was found to be 5.08.

Consider AVNLSASTLPSLREEEEQVRAHAP [V6A], for which the protein stability index stood at 5.14.

Consider AVNLSESTLPSLREEEEQVRAHAP [V6E], for which the protein stability index was found to be 5.58.

As for AVNLSQSTLPSLREEEEQVRAHAP [V6Q], the protein stability index is 5.24.

For the variant AVNLSDSTLPSLREEEEQVRAHAP [V6D], the protein stability index came out at 5.34.

For the variant AVNLSNSTLPSLREEEEQVRAHAP [V6N], the protein stability index worked out at 5.18.

For AVNLSYSTLPSLREEEEQVRAHAP [V6Y], the protein stability index is 4.69.

As for AVNLSGSTLPSLREEEEQVRAHAP [V6G], the protein stability index turned out to be 4.8.

Turning to AVNLSHSTLPSLREEEEQVRAHAP [V6H], the protein stability index amounted to 5.3.

For the variant AVNLSSSTLPSLREEEEQVRAHAP [V6S], the protein stability index is 5.18.

AVNLSVSTDPSLREEEEQVRAHAP [L9D]: the protein stability index amounted to 5.49.

For the variant AVNLSVSTEPSLREEEEQVRAHAP [L9E], the protein stability index is 4.67.

Turning to AVNLSVSTSPSLREEEEQVRAHAP [L9S], the protein stability index is 5.09.

On to AVNLSVSTFPSLREEEEQVRAHAP [L9F], for which the protein stability index turned out to be 5.08.

As to AVNLSVSTWPSLREEEEQVRAHAP [L9W], the protein stability index came out at 3.81.

In the case of AVNLSVSTYPSLREEEEQVRAHAP [L9Y], the protein stability index amounted to 4.47.

As for AVNLSVSTRPSLREEEEQVRAHAP [L9R], the protein stability index worked out at 5.28.

Regarding AVNLSVSTGPSLREEEEQVRAHAP [L9G], the protein stability index stood at 4.83.

As for AVNLSVSTQPSLREEEEQVRAHAP [L9Q], the protein stability index came to 4.88.

In the case of AVNLSVSTHPSLREEEEQVRAHAP [L9H], the protein stability index was 4.81.

AVNLSVSTAPSLREEEEQVRAHAP [L9A]: the protein stability index is 5.36.

Regarding AVNLSVSTVPSLREEEEQVRAHAP [L9V], the protein stability index stood at 4.73.

For the variant AVNLSVSTMPSLREEEEQVRAHAP [L9M], the protein stability index was 4.63.

As for AVNLSVSTIPSLREEEEQVRAHAP [L9I], the protein stability index was found to be 4.14.

Regarding AVNLSVSTKPSLREEEEQVRAHAP [L9K], the protein stability index turned out to be 5.19.

As to AVNLSVSTNPSLREEEEQVRAHAP [L9N], the protein stability index was found to be 5.42.

In the case of AVNLSVSTCPSLREEEEQVRAHAP [L9C], the protein stability index stood at 4.66.

As to AVNLSVSTPPSLREEEEQVRAHAP [L9P], the protein stability index worked out at 5.26.

In the case of AVNLSVSTTPSLREEEEQVRAHAP [L9T], the protein stability index was determined as 5.08.

With AVNLSVSTLPSLLEEEEQVRAHAP [R13L], the protein stability index turned out to be 4.77.

Regarding AVNLSVSTLPSLKEEEEQVRAHAP [R13K], the protein stability index amounted to 4.85.

Regarding AVNLSVSTLPSLTEEEEQVRAHAP [R13T], the protein stability index amounted to 5.25.

On to AVNLSVSTLPSLGEEEEQVRAHAP [R13G], for which the protein stability index was determined as 4.55.

Turning to AVNLSVSTLPSLFEEEEQVRAHAP [R13F], the protein stability index turned out to be 4.78.

For the variant AVNLSVSTLPSLMEEEEQVRAHAP [R13M], the protein stability index came out at 5.03.

Regarding AVNLSVSTLPSLYEEEEQVRAHAP [R13Y], the protein stability index came to 4.67.

For the variant AVNLSVSTLPSLEEEEEQVRAHAP [R13E], the protein stability index was 5.25.

On to AVNLSVSTLPSLCEEEEQVRAHAP [R13C], for which the protein stability index stood at 4.99.

Consider AVNLSVSTLPSLWEEEEQVRAHAP [R13W], for which the protein stability index came out at 4.77.

As for AVNLSVSTLPSLIEEEEQVRAHAP [R13I], the protein stability index amounted to 4.68.

On to AVNLSVSTLPSLQEEEEQVRAHAP [R13Q], for which the protein stability index was determined as 4.91.

As to AVNLSVSTLPSLSEEEEQVRAHAP [R13S], the protein stability index stood at 5.2.

Consider AVNLSVSTLPSLVEEEEQVRAHAP [R13V], for which the protein stability index amounted to 4.81.

For the variant AVNLSVSTLPSLAEEEEQVRAHAP [R13A], the protein stability index was 5.

Take AVNLSVSTLPSLPEEEEQVRAHAP [R13P]: the protein stability index stood at 5.67.

AVNLSVSTLPSLHEEEEQVRAHAP [R13H]: the protein stability index came out at 4.99.

For AVNLSVSTLPSLNEEEEQVRAHAP [R13N], the protein stability index was 5.3.

For AVNLSVSTLPSLDEEEEQVRAHAP [R13D], the protein stability index is 5.15.

As to AVNLSVSTLPSWREEEEQVRAHAP [L12W], the protein stability index was found to be 4.13.

Take AVNLSVSTLPSYREEEEQVRAHAP [L12Y]: the protein stability index amounted to 4.77.

Consider AVNLSVSTLPSMREEEEQVRAHAP [L12M], for which the protein stability index amounted to 4.88.

As to AVNLSVSTLPSIREEEEQVRAHAP [L12I], the protein stability index worked out at 4.79.

Turning to AVNLSVSTLPSVREEEEQVRAHAP [L12V], the protein stability index turned out to be 4.81.

For AVNLSVSTLPSPREEEEQVRAHAP [L12P], the protein stability index worked out at 5.13.

For the variant AVNLSVSTLPSRREEEEQVRAHAP [L12R], the protein stability index came out at 5.35.

On to AVNLSVSTLPSKREEEEQVRAHAP [L12K], for which the protein stability index came out at 4.67.

Turning to AVNLSVSTLPSHREEEEQVRAHAP [L12H], the protein stability index is 5.17.

With AVNLSVSTLPSCREEEEQVRAHAP [L12C], the protein stability index came to 4.42.

Consider AVNLSVSTLPSSREEEEQVRAHAP [L12S], for which the protein stability index was 5.33.

As for AVNLSVSTLPSNREEEEQVRAHAP [L12N], the protein stability index was 5.11.

As for AVNLSVSTLPSQREEEEQVRAHAP [L12Q], the protein stability index came to 5.19.

For AVNLSVSTLPSTREEEEQVRAHAP [L12T], the protein stability index stood at 5.38.

AVNLSVSTLPSAREEEEQVRAHAP [L12A]: the protein stability index came out at 5.

(Values after the supplement of paper PMC10567573.)
